Laboratory results published in patent US20060084157A1.

B1: Fe-hydrogenase HydA of Chlamydomonas reinhardtii (native mature enzyme) (protein)
chain: AAPAAEAPLSHVQQALAELAKPKDDPTRKHVCVQVAPAVRVAIAETLGLAPGATTPKQLAEGLRRLGFDEVFDTLFGADLTIMEEGSELLHRLTEHLEAHPHSDEPLPMFTSCCPGWIAMLEKSYPDLIPYVSSCKSPQMMLAAMVKSYLAEKKGIAPKDMVMVSIMPCTRKQSEADRDWFCVDADPTLRQLDHVITTVELGNIFKERGINLAELPEGEWDNPMGVGSGAGVLFGTTGGVMEAALRTAYELFTGTPLPRLSLSEVRGMDGIKETNITMVPAPGSKFEELLKHRAAARAEAAAHGTPGPLAWDGGAGFTSEDGRGGITLRVAVANGLGNAKKLITKMQAGEAKYDFVEIMACPAGCVGGGGQPRSTDKAITQKRQAALYNLDEKSTLRRSHENPSIRELYDTYLGEPLGHKAHELLHTHYVAGGVEEKDEKK

Legend:
[1] = molecular target: Purified Fe-hydrogenase HydA of Scenedesmus obliquus (native enzyme) (Scenedesmus obliquus); assay: cell-based or functional assay
[2] = molecular target: ferredoxin (source not stated, Table I)

Purified Fe-hydrogenase HydA of Scenedesmus obliquus (native enzyme) (Scenedesmus obliquus), sequence (chain, as listed by the source): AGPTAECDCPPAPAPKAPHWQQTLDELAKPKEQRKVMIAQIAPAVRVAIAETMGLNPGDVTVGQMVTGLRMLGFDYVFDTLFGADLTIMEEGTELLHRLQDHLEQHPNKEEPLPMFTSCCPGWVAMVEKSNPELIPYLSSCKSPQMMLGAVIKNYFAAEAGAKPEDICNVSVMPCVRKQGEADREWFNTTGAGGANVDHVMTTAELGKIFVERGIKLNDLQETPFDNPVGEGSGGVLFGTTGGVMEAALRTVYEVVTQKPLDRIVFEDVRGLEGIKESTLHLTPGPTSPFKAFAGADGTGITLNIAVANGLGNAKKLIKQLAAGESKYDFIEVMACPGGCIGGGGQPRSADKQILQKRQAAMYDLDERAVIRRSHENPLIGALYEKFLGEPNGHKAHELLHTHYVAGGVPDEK

Row | Molecule | H2-evolving activity (in vitro, dithionite as reducing reagent) [1] | KM value (ferredoxin) [2]
1 | Spinach ferredoxin (PetF) (from UniProt P00221 51-147) | 350 U/mg protein | 
2 | Ferredoxin (PetF) of Chlamydomonas reinhardtii (from UniProt P07839 33-126) | 390 U/mg protein | 
3 | Ferredoxin (PetF) of Scenedesmus obliquus | 420 U/mg protein | 
4 | B1 |  | 35 µM
